The values that follow come from paper PMC4250932.

The data set has as its system NC(=O)C1=CN([C@@H]2O[C@H](COP(=O)(O)OP(=O)(O)OC[C@H]3O[C@@H](n4cnc5c(N)ncnc54)[C@H](OP(=O)(O)O)[C@@H]3O)[C@@H](O)[C@H]2O)C=CC1. Kind of data set: purified protein. Particulars: varied: cofactor.

By Km is commonly meant the substrate concentration at which the rate is half of its maximum. In the case of “RmlD (dTDP-6-deoxy-L-lyxo-4-hexulose reductase) (Mycobacterium tuberculosis H37Rv)”, the Km was 12.5 µM.
